We go through three molecules from patent US12497460B2, “Anti-MSR1 antibodies and methods of use thereof” (REGENERON PHARMACEUTICALS, INC., priority 2018, dated 2025).

For test [1], the target named is HMM-mfMSR1 (monkey MSR1 extracellular domain). As to the kind of experiment: Biacore surface plasmon resonance binding kinetics of anti-MSR1 mAbs, antibody-capture format. The note with it: analyte HMM-mfMSR1, NB = no binding observed; for kd: * = no dissociation observed, kd manually fixed at 1.00E−05; for ka: antibody-capture format; for Kd: calculated from kinetic rates; for t½: dissociative half-life. As for the experimental part: (§1) Binding affinities and kinetic constants of human anti-MSR1 antibodies for different MSR1 reagents were determined by real-time surface plasmon resonance (Biacore 4000). All binding studies were performed in 10 mM HEPES, 150 mM NaCl, 3 mM EDTA, and 0.05% v/v Surfactant Tween-20, pH 7.4 (HBS-ET) running buffer at 25° C. and 37° C.
Chain of HMM-mfMSR1 (monkey MSR1 extracellular domain) (as listed by the source): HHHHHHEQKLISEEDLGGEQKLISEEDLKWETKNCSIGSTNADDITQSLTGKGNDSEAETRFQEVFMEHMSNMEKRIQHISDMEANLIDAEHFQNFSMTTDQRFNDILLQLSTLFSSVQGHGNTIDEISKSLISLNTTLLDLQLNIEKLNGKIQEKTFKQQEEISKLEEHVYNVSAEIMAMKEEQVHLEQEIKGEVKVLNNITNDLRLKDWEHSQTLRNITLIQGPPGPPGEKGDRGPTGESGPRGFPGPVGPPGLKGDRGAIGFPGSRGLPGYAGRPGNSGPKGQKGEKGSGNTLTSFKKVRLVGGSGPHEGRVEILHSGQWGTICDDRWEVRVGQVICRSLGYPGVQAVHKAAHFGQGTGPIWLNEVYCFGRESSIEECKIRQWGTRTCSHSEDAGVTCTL
(§2) The association rate (ka) and dissociation rate (kd) were determined by fitting the real-time binding sensorgrams to a 1:1 binding model with mass transport limitation using Scrubber 2.0c curve-fitting software. Binding dissociation equilibrium constant (KD) and dissociative half-life (t½) were calculated from the kinetic rates as: […]

Test [2] deals with T1, His9-hMSR1 (human MSR1 extracellular domain) (Homo sapiens, UniProt P21757).
T1 construct: human MSR1 extracellular domain expressed with a N-terminal nonahistidine tag; His9 (nonahistidine) (N); purchased R&D Systems 2708-MS
T1 sequence (P21757 77-451 limits assumed): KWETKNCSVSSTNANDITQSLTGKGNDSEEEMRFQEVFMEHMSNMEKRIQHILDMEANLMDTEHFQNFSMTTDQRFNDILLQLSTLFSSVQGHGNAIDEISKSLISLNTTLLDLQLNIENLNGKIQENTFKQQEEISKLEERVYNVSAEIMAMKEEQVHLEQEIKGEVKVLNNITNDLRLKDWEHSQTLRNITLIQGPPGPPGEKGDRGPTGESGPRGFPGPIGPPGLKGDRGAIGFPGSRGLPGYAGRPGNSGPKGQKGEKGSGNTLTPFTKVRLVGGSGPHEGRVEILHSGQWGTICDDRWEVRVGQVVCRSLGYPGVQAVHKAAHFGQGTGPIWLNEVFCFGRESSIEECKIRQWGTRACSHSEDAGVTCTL
Described as above. The note with it: analyte His9-hMSR1, NB = no binding observed; for kd: * = no dissociation observed, kd manually fixed at 1.00E−05; for ka: antibody-capture format; for Kd: calculated from kinetic rates; for t½: dissociative half-life. The protocol:
as §1, §2

Test [3] deals with B16F10.9 cells (MSR1 negative). Kind of test: Flow cytometry binding, MSR1 negative cells. The note with it: 10 μg/mL antibody. The class given is cell-based, mouse. As for the experimental part: Relative cell surface binding of the anti-MSR1 antibodies to mouse MSR1 expressing cells was determined by flow cytometry using MSR1 positive RAW264.7 cells (ATCC, Catalog #TIB-71) and MSR1 negative B16F10.9 cells (Lin et al. 1998. PNAS 95:8829-8834). For the assay, cells were plated in PBS without calcium and magnesium (VWR Cat #45000-446) and 2% FBS (Saradigm Cat #1500-500) (Staining Buffer) in 96 well V-bottom plates (Axygen Scientific, Cat #P-96-450-V-C-S). To block binding to Fc receptors, RAW264.7 cells were incubated for 30 minutes at 4° C. with 500 μg/mL mouse IgG (Jackson ImmunoResearch, Cat #015-000-003) diluted in staining buffer, while B16F10.9 cells remained in staining buffer. Following Fc receptor blocking, 10 μg/mL of anti-MSR1 antibodies or an isotype control antibody were added to the cells and were subsequently incubated for 30 minutes on ice. For a positive control, a commercial anti-mouse MSR1 (Sino Biological, Cat #50129-R004) antibody was used, while a rabbit IgG antibody (Thermo Scientific, Cat #26102) was used as a negative control. […] Cells were subsequently washed and fixed using a 50% solution of Cytofix (BD Biosciences, Cat #554655) diluted in PBS. […] The signal to noise (S/N) was determined by calculating the ratio of the anti-MSR1 antibodies or the control antibodies MFI to the unstained sample MFI (Table 11).
On the technique in general: In flow cytometry, cells or beads pass a laser one at a time.

The target in test [4] is T1, His9-hMSR1 (human MSR1 extracellular domain). As to the kind of experiment: Biacore T200 surface plasmon resonance binding kinetics of anti-MSR1 antibody-drug conjugates and parental antibodies. The note with it: 25° C.; for ka: Table 19, antibody-LXR ADCs and unconjugated antibodies; for kd: Table 19, * = no dissociation observed, kd manually fixed at 1.00E−05. The protocol: The MSR1 antibodies disclosed herein were conjugated to various liver X receptor (LXR) payloads or various steroid payloads. This example describes how equilibrium dissociation constant (KD) values for human MSR1 reagents binding to human anti-MSR1 antibody-drug conjugates and their corresponding unconjugated parental antibodies were determined using a real-time surface plasmon resonance-based Biacore T200 biosensor.
All binding studies were performed in 10 mM HEPES, 300 mM NaCl, 3 mM EDTA, and 0.05% v/v Surfactant Tween-20, pH 7.4 (HBS-ET) running buffer at 25° C. The Biacore CM4 sensor chip surface was first derivatized by amine coupling with the goat anti-human Fcγ specific polyclonal antibody (Jackson ImmunoResearch Laboratories, Cat #BR-1008-39) to capture anti-MSR1 monoclonal antibodies. Binding studies were performed on human MSR1 extracellular domain expressed with a N-terminal nonahistidine tag (His9-hMSR1; R&D Systems, Cat #2708-MS).
as §2
Binding kinetics parameters for His9-hMSR1 binding to different anti-MSR1 antibody-LXR ADCs and their unconjugated parental antibodies at 25° C. are shown in Table 19. “LP1” represents a linker-payload for which the payload structure is provided in Example 11.
The binding studies were repeated with anti-MSR1 antibody H1H21234-N297Q and steroid linker payloads (LPs). “LP3” represents a linker-payload for which the structure is provided in Example 23, and “LP13” represents a linker-payload for which the structure is provided in Example 24.

B1: H1H21231N-N297Q: modified version of "21231N (H1H21231N-N297Q) anti-MSR1 antibodies" with "a N297Q single point mutation" (antibody, V domains shown)
VH: EVQLVESGGGLVQPGGSLRLSCAASGFTFSDHYMDWVRQAPGKGLEWVGRTRNKANSHTTEYTASVTGRFTISRDDSRNSLYLQMNSLKTEDTAVYYCVRAGIIGTLFDYWGQGTLVTVSS
VL: DIQMTQFPSSLSASVGDRVTITCRASQSISSFLNWFQQKPGKAPKFLIYAASSLQSGVPSRFSGSGSGTDFTLTISSLQPEDFATYYCQQSYSSPPITFGQGTRLEIKR
Turning to B1, the kd worked out at 9.03e-05 s⁻¹ in test [1] (25° C.), 0.000109 s⁻¹ in test [1] (37° C.), 5.88e-05 s⁻¹ in test [2] (25° C.) and 0.000115 s⁻¹ in test [2] (37° C.). For the same molecule, the ka in test [1] (25° C.) stood at 240000 M⁻¹ s⁻¹; in test [1] (37° C.), 587000 M⁻¹ s⁻¹; in test [2] (25° C.) it was 399000 M⁻¹ s⁻¹; in test [2] (37° C.), 534000 M⁻¹ s⁻¹. Moreover, the Kd was 0.376 nM in test [1] (25° C.), 0.186 nM in test [1] (37° C.), 0.147 nM in test [2] (25° C.) and 0.215 nM in test [2] (37° C.). The t½ in test [1] (25° C.) worked out at 2.13 h; in test [1] (37° C.) it was 1.77 h; in test [2] (25° C.), 3.27 h; in test [2] (37° C.), 1.68 h. Also, in test [3], the “B16F10.9 MFI” value is listed as 3374.

B2: H1H27729P-N297Q: anti-MSR1 antibody "made with an N297Q single point mutation in human Fcγ portion" (antibody, V domains shown)
VH: QVQLVESGGGLVKPGGSLRLSCAASGFIFSDYYMSWIRQAPGKGLEWVSYISSSGTTIYGDSVKGRFTMSRDNAKNSLYLQMNSLRAEDTAVYYCARNYALFDYWGQGTLVTVSS
VL: DIQMTQSPSSLSASVGDRVTITCQASQDISKYLNWYQQKPGKAPKLLIYYTSNLETGVPSRFSGSGSGTDFTFTISSLQPEDIATYYCHQSDYLPFTFGPGTKVDIKR
For the molecule B2, the kd in test [1] (25° C.) was 0.00212 s⁻¹; in test [1] (37° C.), 0.00349 s⁻¹; in test [2] (25° C.) it was 0.00107 s⁻¹; in test [2] (37° C.), 0.00204 s⁻¹; in test [4] it was 0.000906 s⁻¹. The ka came out at 269000 M⁻¹ s⁻¹ in test [1] (25° C.); 407000 M⁻¹ s⁻¹ in test [1] (37° C.); 197000 M⁻¹ s⁻¹ in test [2] (25° C.); 239000 M⁻¹ s⁻¹ in test [2] (37° C.); 105000 M⁻¹ s⁻¹ in test [4]. In addition, in test [3], the “B16F10.9 MFI” value was found to be 3459.

B3: H1H27747P-N297Q (antibody, V domains shown)
VH: QVQLVESGGAVVQPGRSLRLSCAASGFTFSYYGMHWVRQAPGKGLEWVAVISYDGSKKYYADSVKGRFTISRDNSKNTLYLQMNSLRAEDTAVYYCAKDLTVDFYYGMDVWGQGTTVTVSS
VL: DIQMTQSPSSVSASVGDRVTITCRASQGISSWLAWYQQKPGKAPKLLIYATSSLQSGAPSRFSGSGSGTDFTLTISSLQPEDFATYFCQQANSFPYTFGQGTKLEIKR
With B3, the kd in test [1] (25° C.) came to 0.000874 s⁻¹; in test [1] (37° C.) it was 0.00228 s⁻¹; in test [2] (25° C.), 0.000652 s⁻¹; in test [2] (37° C.), 0.00276 s⁻¹; in test [4], 0.000262 s⁻¹. For the same molecule, the ka in test [1] (25° C.) was 231000 M⁻¹ s⁻¹; in test [1] (37° C.), 657000 M⁻¹ s⁻¹; in test [2] (25° C.), 243000 M⁻¹ s⁻¹; in test [2] (37° C.), 513000 M⁻¹ s⁻¹; in test [4], 117000 M⁻¹ s⁻¹. Besides, the “B16F10.9 MFI” value in test [3] is on record as 3875.

What is called Kd is the equilibrium constant for the complex coming apart. A word on the t½: it is the time needed for the level to fall by half in the phase considered.
